One protein from patent US20100297623A1 (COUNCIL OF THE QUEENSLAND INSTITUTE OF MEDICAL RESEARCH, published 2010) can be followed below.

This data set concerns the molecule itself. Kind of data set: gel filtration (self-association). (In general: Size exclusion chromatography separates by hydrodynamic size, large species first.)

B1: human ssDNA binding protein 1 (hSSB1) (other)
chain: MTTETFVKDIKPGLKNLNLIFIVLETGRVTKTKDGHEVRTCKVADKTGSINISVWDDVGNLIQPGDIIRLTKGYASVFKGCLTLYTGRGGDLQKIGEFCMVYSEVPNFSEPNPEYSTQQAPNKAVQNDSNPSASQPTTGPSAASPASENQNGNGLSAPPGPGGGPHPPHTPSHPPSTRITRSQPNHTPAGPPGPSSNPVSNGKETRRSSKR
notes: also called human SSB1
As for B1, the binding result was “binds”.
